Measured values from the supplement of paper PMC9112550, “Optimization of the antimicrobial peptide Bac7 by deep mutational scanning” (BMC Biology, 2022).

Tested on: Escherichia coli TOP10
Test: shrunken log2 fold change of peptide-encoding DNA abundance (4.5 h post-induction vs induction); higher = less antimicrobial activity (less host growth inhibition)
Settings: time post-induction: 4.5 h; library: site-saturation at positions 5, 18, 19, 20
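Note: peptides expressed intracellularly from a pBAD plasmid library in pooled LB shake-flask culture, induced with 0.3% L-arabinose, DNA abundance read by NGS, three biological replicates, DESeq2 with apeglm shrinkage.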

Row | Sequence | shrunken log2 fold change
1 | RRIRERPPRLPRPRPRPDPWPRP | -0.12
2 | RRIRERPPRLPRPRPRPDSDPRP | -0.0703
3 | RRIRERPPRLPRPRPRPDTQPRP | -0.116
4 | RRIRERPPRLPRPRPRPDVNPRP | -0.0793
5 | RRIRERPPRLPRPRPRPDWEPRP | 0.368
6 | RRIRERPPRLPRPRPRPDYFPRP | -0.249
7 | RRIRERPPRLPRPRPRPDYSPRP | -1.47
8 | RRIRERPPRLPRPRPRPEAQPRP | 0.227
9 | RRIRERPPRLPRPRPRPECYPRP | -0.143
10 | RRIRERPPRLPRPRPRPEDNPRP | 0.0813
11 | RRIRERPPRLPRPRPRPEEWPRP | -0.0919
12 | RRIRERPPRLPRPRPRPEFFPRP | -0.131
13 | RRIRERPPRLPRPRPRPEGEPRP | 0.332
14 | RRIRERPPRLPRPRPRPEGGPRP | 0.361
15 | RRIRERPPRLPRPRPRPEIGPRP | -0.166
16 | RRIRERPPRLPRPRPRPEKHPRP | -0.13
17 | RRIRERPPRLPRPRPRPEKKPRP | -0.0578
18 | RRIRERPPRLPRPRPRPELTPRP | 0.534
19 | RRIRERPPRLPRPRPRPEMQPRP | -0.0367
20 | RRIRERPPRLPRPRPRPENRPRP | -0.29
21 | RRIRERPPRLPRPRPRPENTPRP | -0.354
22 | RRIRERPPRLPRPRPRPEPCPRP | -0.148
23 | RRIRERPPRLPRPRPRPEPPPRP | 0.595
24 | RRIRERPPRLPRPRPRPEQKPRP | -0.017
25 | RRIRERPPRLPRPRPRPERAPRP | -0.024

Row | Sequence | shrunken log2 fold change
26 | RRIRERPPRLPRPRPRPERFPRP | -0.0509
27 | RRIRERPPRLPRPRPRPERRPRP | -0.0345
28 | RRIRERPPRLPRPRPRPERVPRP | -0.0309
29 | RRIRERPPRLPRPRPRPEWMPRP | 0.171
30 | RRIRERPPRLPRPRPRPEWNPRP | -0.197
31 | RRIRERPPRLPRPRPRPEWSPRP | 0.0433
32 | RRIRERPPRLPRPRPRPFAAPRP | 0.229
33 | RRIRERPPRLPRPRPRPFACPRP | -0.433
34 | RRIRERPPRLPRPRPRPFEAPRP | -0.342
35 | RRIRERPPRLPRPRPRPFEQPRP | -0.126
36 | RRIRERPPRLPRPRPRPFETPRP | 0.21
37 | RRIRERPPRLPRPRPRPFFIPRP | -0.354
38 | RRIRERPPRLPRPRPRPFHWPRP | -0.0575
39 | RRIRERPPRLPRPRPRPFICPRP | -0.36
40 | RRIRERPPRLPRPRPRPFKVPRP | 0.14
41 | RRIRERPPRLPRPRPRPFLSPRP | -0.11
42 | RRIRERPPRLPRPRPRPFNFPRP | -0.298
43 | RRIRERPPRLPRPRPRPFNTPRP | -0.124
44 | RRIRERPPRLPRPRPRPFPMPRP | -0.423
45 | RRIRERPPRLPRPRPRPFQGPRP | 0.0891
46 | RRIRERPPRLPRPRPRPFQRPRP | -0.0653
47 | RRIRERPPRLPRPRPRPFRAPRP | 0.0204
48 | RRIRERPPRLPRPRPRPFSHPRP | -0.153
49 | RRIRERPPRLPRPRPRPFTSPRP | -0.209
50 | RRIRERPPRLPRPRPRPFTVPRP | -0.00987

Row | Sequence | shrunken log2 fold change
51 | RRIRERPPRLPRPRPRPFVIPRP | -0.478
52 | RRIRERPPRLPRPRPRPFWQPRP | -0.0859
53 | RRIRERPPRLPRPRPRPFYEPRP | -0.498
54 | RRIRERPPRLPRPRPRPFYGPRP | 0.015
55 | RRIRERPPRLPRPRPRPFYIPRP | -0.5
56 | RRIRERPPRLPRPRPRPFYLPRP | -0.648
57 | RRIRERPPRLPRPRPRPFYVPRP | -0.189
58 | RRIRERPPRLPRPRPRPGANPRP | 0.0574
59 | RRIRERPPRLPRPRPRPGCLPRP | -0.017
60 | RRIRERPPRLPRPRPRPGCWPRP | 0.166
61 | RRIRERPPRLPRPRPRPGETPRP | 0.0954
62 | RRIRERPPRLPRPRPRPGFAPRP | 0.604
63 | RRIRERPPRLPRPRPRPGGPPRP | -0.00661
64 | RRIRERPPRLPRPRPRPGGVPRP | 0.0164
65 | RRIRERPPRLPRPRPRPGHQPRP | -0.236
66 | RRIRERPPRLPRPRPRPGIPPRP | -0.421
67 | RRIRERPPRLPRPRPRPGIQPRP | -0.398
68 | RRIRERPPRLPRPRPRPGKQPRP | -0.0388
69 | RRIRERPPRLPRPRPRPGMAPRP | 0.188
70 | RRIRERPPRLPRPRPRPGNPPRP | 0.00298
71 | RRIRERPPRLPRPRPRPGPLPRP | -0.127
72 | RRIRERPPRLPRPRPRPGPVPRP | 0.137
73 | RRIRERPPRLPRPRPRPGQDPRP | -0.0237
74 | RRIRERPPRLPRPRPRPGQNPRP | -0.0659
75 | RRIRERPPRLPRPRPRPGRPPRP | 0.164

Row | Sequence | shrunken log2 fold change
76 | RRIRERPPRLPRPRPRPGRRPRP | 0.0607
77 | RRIRERPPRLPRPRPRPGTNPRP | -0.361
78 | RRIRERPPRLPRPRPRPGVYPRP | -0.049
79 | RRIRERPPRLPRPRPRPGYVPRP | -0.227
80 | RRIRERPPRLPRPRPRPHAHPRP | -0.0467
81 | RRIRERPPRLPRPRPRPHAKPRP | 0.0118
82 | RRIRERPPRLPRPRPRPHALPRP | -0.236
83 | RRIRERPPRLPRPRPRPHANPRP | -0.332
84 | RRIRERPPRLPRPRPRPHCDPRP | 0.023
85 | RRIRERPPRLPRPRPRPHCWPRP | -0.0487
86 | RRIRERPPRLPRPRPRPHFQPRP | 0.0177
87 | RRIRERPPRLPRPRPRPHGFPRP | -0.0632
88 | RRIRERPPRLPRPRPRPHHPPRP | -0.197
89 | RRIRERPPRLPRPRPRPHKDPRP | 0.144
90 | RRIRERPPRLPRPRPRPHKFPRP | -0.984
91 | RRIRERPPRLPRPRPRPHKKPRP | 0.0621
92 | RRIRERPPRLPRPRPRPHKPPRP | -0.519
93 | RRIRERPPRLPRPRPRPHLDPRP | 0.000475
94 | RRIRERPPRLPRPRPRPHLRPRP | -0.173
95 | RRIRERPPRLPRPRPRPHMFPRP | -0.749
96 | RRIRERPPRLPRPRPRPHMSPRP | -0.27
97 | RRIRERPPRLPRPRPRPHPTPRP | 0.0575
98 | RRIRERPPRLPRPRPRPHQIPRP | -0.372
99 | RRIRERPPRLPRPRPRPHRMPRP | -0.305
100 | RRIRERPPRLPRPRPRPHRRPRP | 0.0407

Row | Sequence | shrunken log2 fold change
101 | RRIRERPPRLPRPRPRPHRWPRP | 0.0978
102 | RRIRERPPRLPRPRPRPHSRPRP | -0.0374
103 | RRIRERPPRLPRPRPRPHSTPRP | -0.817
104 | RRIRERPPRLPRPRPRPHVIPRP | -0.133
105 | RRIRERPPRLPRPRPRPHYQPRP | -0.267
106 | RRIRERPPRLPRPRPRPIAAPRP | 0.466
107 | RRIRERPPRLPRPRPRPICAPRP | 0.0742
108 | RRIRERPPRLPRPRPRPICHPRP | -0.187
109 | RRIRERPPRLPRPRPRPICLPRP | -0.0493
110 | RRIRERPPRLPRPRPRPIDTPRP | -0.113
111 | RRIRERPPRLPRPRPRPIEPPRP | -0.26
112 | RRIRERPPRLPRPRPRPIFMPRP | -0.1
113 | RRIRERPPRLPRPRPRPIIRPRP | -0.447
114 | RRIRERPPRLPRPRPRPIKAPRP | -0.00435
115 | RRIRERPPRLPRPRPRPIKMPRP | -0.347
116 | RRIRERPPRLPRPRPRPIKNPRP | -1.13
117 | RRIRERPPRLPRPRPRPILGPRP | -0.197
118 | RRIRERPPRLPRPRPRPILMPRP | -0.317
119 | RRIRERPPRLPRPRPRPIMEPRP | -0.465
120 | RRIRERPPRLPRPRPRPINFPRP | -0.291
121 | RRIRERPPRLPRPRPRPINMPRP | -0.261
122 | RRIRERPPRLPRPRPRPINWPRP | -0.169
123 | RRIRERPPRLPRPRPRPIQSPRP | -0.642
124 | RRIRERPPRLPRPRPRPIRWPRP | -0.0251
125 | RRIRERPPRLPRPRPRPIVDPRP | -0.204

Row | Sequence | shrunken log2 fold change
126 | RRIRERPPRLPRPRPRPIVLPRP | -0.579
127 | RRIRERPPRLPRPRPRPIWDPRP | -0.254
128 | RRIRERPPRLPRPRPRPKAHPRP | 0.107
129 | RRIRERPPRLPRPRPRPKCKPRP | -0.173
130 | RRIRERPPRLPRPRPRPKCNPRP | 0.0249
131 | RRIRERPPRLPRPRPRPKCQPRP | -0.178
132 | RRIRERPPRLPRPRPRPKCRPRP | -0.0625
133 | RRIRERPPRLPRPRPRPKDSPRP | -0.212
134 | RRIRERPPRLPRPRPRPKFSPRP | -0.0396
135 | RRIRERPPRLPRPRPRPKHNPRP | -0.587
136 | RRIRERPPRLPRPRPRPKHPPRP | -0.0977
137 | RRIRERPPRLPRPRPRPKHQPRP | -0.0699
138 | RRIRERPPRLPRPRPRPKHSPRP | 0.111
139 | RRIRERPPRLPRPRPRPKIAPRP | -0.147
140 | RRIRERPPRLPRPRPRPKIYPRP | -0.165
141 | RRIRERPPRLPRPRPRPKLSPRP | -0.173
142 | RRIRERPPRLPRPRPRPKNKPRP | -0.559
143 | RRIRERPPRLPRPRPRPKNRPRP | 0.103
144 | RRIRERPPRLPRPRPRPKPDPRP | 0.0317
145 | RRIRERPPRLPRPRPRPKPFPRP | -0.37
146 | RRIRERPPRLPRPRPRPKRAPRP | -0.145
147 | RRIRERPPRLPRPRPRPKRIPRP | 0.103
148 | RRIRERPPRLPRPRPRPKSLPRP | -0.515
149 | RRIRERPPRLPRPRPRPKSMPRP | -0.307
150 | RRIRERPPRLPRPRPRPKSWPRP | 0.715
